Results as given in paper PMC3606321, “Identification and characterization of two distinct PPP1R2 isoforms in human spermatozoa” (BMC Cell Biology, 2013).

Legend:
[1] = molecular target: purified recombinant PPP1CC1 (UniProt P36873 1-323); experiment: cell-based or functional assay
[2] = molecular target: purified recombinant PPP1CC2 (UniProt P36873-2 1-337); experiment: cell-based or functional assay
Chain of purified recombinant PPP1CC2 (P36873 other isoform, or with tags, fused parts or gaps): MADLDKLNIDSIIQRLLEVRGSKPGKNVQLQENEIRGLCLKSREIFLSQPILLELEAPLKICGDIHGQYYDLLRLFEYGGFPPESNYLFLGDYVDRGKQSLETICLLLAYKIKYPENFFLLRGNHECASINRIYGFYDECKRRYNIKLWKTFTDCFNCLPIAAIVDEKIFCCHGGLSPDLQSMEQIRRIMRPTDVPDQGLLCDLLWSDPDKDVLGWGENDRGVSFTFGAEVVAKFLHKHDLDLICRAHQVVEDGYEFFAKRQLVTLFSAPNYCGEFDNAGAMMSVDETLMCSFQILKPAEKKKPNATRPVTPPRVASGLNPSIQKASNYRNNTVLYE

Chain of purified recombinant PPP1CC1 (P36873 whole entry): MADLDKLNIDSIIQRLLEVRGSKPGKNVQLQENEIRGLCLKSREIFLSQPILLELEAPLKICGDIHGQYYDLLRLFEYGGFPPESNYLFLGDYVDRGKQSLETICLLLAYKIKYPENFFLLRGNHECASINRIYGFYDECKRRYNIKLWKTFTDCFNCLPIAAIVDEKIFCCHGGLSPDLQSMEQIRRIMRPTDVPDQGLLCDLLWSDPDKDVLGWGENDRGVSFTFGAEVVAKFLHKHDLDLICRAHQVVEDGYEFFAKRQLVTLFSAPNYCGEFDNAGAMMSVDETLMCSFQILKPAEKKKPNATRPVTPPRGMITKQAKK

- IC50 of inhibition of PPP1CC1 in the phosphorylase phosphatase assay ([32P]phosphorylase a as substrate) [1]: 0.73 nM
- IC50 of inhibition of PPP1CC2 in the phosphorylase phosphatase assay ([32P]phosphorylase a as substrate) [2]: 0.09 nM
B1: His-PPP1R2P3 (natural protein, human, UniProt Q6NXS1 1-205, looked up)
chain: MAASTASHRPIKGILKNKTSTTSSMVASAEQPRRSVDEELSKKSQKWDEINILATYHPADKGYGLMKIDEPSPPYHSMMGDDEDACRDTETTEAMAPDILAKKLAAAEGLEPKYRIQEQESSGEEDSDLSPEEREKKRQFEMRRKLHYNEGLNIKLARQLISKDLHDDDEDEEMLETADGESMNTEESNQGSTPSDQQQNKLRSS
